Test results: patent publication US20230147840A1 (Chugai, published 2023)

Assays:
Human CD3eg linker [1] = biological target: T1, Human CD3eg linker (human); experiment: SPR Biacore 8K, 25 C; reference xGPC3/DualAE05-xSG1350kSG1349hV11
T1 construct: Single-chain soluble construct; also called recombinant human CD3
T1 chain: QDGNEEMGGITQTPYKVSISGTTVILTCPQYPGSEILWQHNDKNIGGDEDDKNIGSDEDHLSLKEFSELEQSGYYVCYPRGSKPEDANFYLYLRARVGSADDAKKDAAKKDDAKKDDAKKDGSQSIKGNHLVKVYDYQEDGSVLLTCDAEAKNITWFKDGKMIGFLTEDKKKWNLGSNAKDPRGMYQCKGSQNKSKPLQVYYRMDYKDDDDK
Procedure: (§1) Binding affinity of Dual-Ig antibodies to human CD3 were assessed at 25 degrees C. using Biacore 8K instrument (GE Healthcare). Anti-human Fc (GE Healthcare) was immobilized onto all flow cells of a CM4 sensor chip using amine coupling kit (GE Healthcare). Antibodies were captured onto the anti-Fc sensor surfaces, then recombinant human CD3 or CD137 was injected over the flow cell. All antibodies and analytes were prepared in ACES pH 7.4 containing 20 mM ACES, 150 mM NaCl, 0.05% Tween 20, 0.005% NaN₃. Sensor surface was regenerated each cycle with 3M MgCl₂. […] CD137 binding affinity assay was conducted in same condition except assay temperature was set at 37 degrees C.
This is caused by faster off rate in FAST-Ig construct. […] This is caused by faster off rate in FAST-Ig construct.

Human CD3eg linker [2] = biological target: T1, Human CD3eg linker; experiment: SPR Biacore 8K, Ab captured on anti-human Fc, CD3 as analyte, 25 C
Procedure: as §1

[3] = biological target: T2, Human CD137 extracellular domain (ECD) (human); experiment: SPR Biacore 8K, Ab captured on anti-human Fc, CD137 as analyte, 37 C
T2 construct: also called Human CD137 ECD; recombinant human CD137
T2 sequence (chain, as listed by the source limits assumed): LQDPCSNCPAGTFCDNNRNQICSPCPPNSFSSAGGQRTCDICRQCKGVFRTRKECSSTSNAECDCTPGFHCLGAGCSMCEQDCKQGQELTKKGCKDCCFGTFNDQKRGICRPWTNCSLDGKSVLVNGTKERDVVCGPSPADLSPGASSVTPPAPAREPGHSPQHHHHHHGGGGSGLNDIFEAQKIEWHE
Procedure: as §1

[4] = biological target: T2, Human CD137 extracellular domain (ECD); experiment: SPR (Biacore T200, 25 degrees C), in-tandem blocking assay; antibody captured on anti-human Fc, first saturated with 8 µM hCD3eg, then 8 µM hCD137 injected in the presence of 8 µM hCD3eg
Procedure: (§2) Biacore in-tandem blocking assay was performed to characterize non-simultaneous binding of Dual-Ig Ab for both CD3 and CD137. The assay was performed on Biacore T200 instrument (GE Healthcare) at 25 degrees C. in ACES pH 7.4 buffer containing 20 mM ACES, 150 mM NaCl, 0.05% Tween 20, 0.005% NaN₃. Anti-human Fc (GE Healthcare) was immobilized onto all flow cells of a CM4 sensor chip using amine coupling kit (GE Healthcare). Antibodies were captured onto the anti-Fc sensor surfaces, then 8 micro M CD3 was injected over the flow cell followed by an identical injection of 8 micro M CD137 in the presence of 8 micro M CD3. An increased of binding response for second injection was indicative of binding to different paratopes therefore a simultaneous binding interactions; whereas no enhancement or decreased of binding response for the 2nd injection was indicative of binding to the same or overlapping or adjacent paratopes, therefore a non-simultaneous binding interactions.

Human CD3eg linker [5] = biological target: T1, Human CD3eg linker; experiment: SPR (Biacore T200, 25 degrees C), in-tandem blocking assay; antibody captured on anti-human Fc, 8 µM hCD3eg injected as analyte
Procedure: as §2

| Binder | fold weaker binding affinity than CrossMab xSG1350 (Human CD3eg linker [1]) | Kd (Human CD3eg linker [2]) | koff (Human CD3eg linker [2]) | kon (Human CD3eg linker [2]) | Kd [3] | koff [3] | kon [3] | binding result [4] | binding result (Human CD3eg linker [5]) |
| --- | --- | --- | --- | --- | --- | --- | --- | --- | --- |
| GPC3KE/DualAE05EK-SG1363k1365hV11 (bispecific antibody, V domains shown, 1+1 tri-specific, FAST-Ig format; Full chains not tied by name) VH 1: QVQLVQSGAEVKKPGASVTVSCKASGYTFTDYEMHWIRKPPGEGLEWIGAIDGPTPDTAYSEKFKGRVTLTADKSTSTAYMELSSLTSEDTAVYYCTRFYSYTYWGQGTLVTVSS VL 1: DIVMTQSPLSLPVTPGEPASISCRSSQPLVHSNRNTYLHWYQEKPGQAPRLLIYKVSNRFSGVPDRFSGSGSGTDFTLKISRVEAEDVGVYYCGQGTQVPYTFGQGTKLEIK VH 2: QVQLVESGGGLVQPGRSLRLSCAASGFKFSNVWFHWVREAPGKGLEWVAQIKDYYNAYAAYYAPSVKGRFTISRDDSKNSIYLQMNSLKTEDTAVYYCHYVHYASASTLLPAEGVDAWGQGTTVTVSS VL 2: DIVMTQSPLSLPVTPGEPASISCQPSQEVVHMNRNTYLHWYQKKPGQAPRLLIYKVSNRFPGVPDRFSGSGSGTDFTLKISRVEAEDVGVYYCAQGTSHPFTFGQGTKLEIK | ~3 fold | 806 nM | 0.0611 s⁻¹ | 75900 M⁻¹ s⁻¹ | 38 nM | 0.000506 s⁻¹ | 13300 M⁻¹ s⁻¹ | – | – |
| xGPC3/DualAE15-xSG1350k1349hV11 (bispecific antibody, V domains shown, 1+1 tri-specific, CrossMab format; Full chains not tied by name; also called xGPC3DualAE15-xSG1350kSG1349hV11; xGPC3/DualAE15-xSG1350kSG1349hV11) VH 1: QVQLVQSGAEVKKPGASVTVSCKASGYTFTDYEMHWIRQPPGEGLEWIGAIDGPTPDTAYSEKFKGRVTLTADKSTSTAYMELSSLTSEDTAVYYCTRFYSYTYWGQGTLVTVSS VL 1: DIVMTQSPLSLPVTPGEPASISCRSSQPLVHSNRNTYLHWYQQKPGQAPRLLIYKVSNRFSGVPDRFSGSGSGTDFTLKISRVEAEDVGVYYCGQGTQVPYTFGQGTKLEIK VH 2: QVQLVESGGGLVQPGRSLRLSCAASGFKFSNVWFHWVRQAPGKGLEWVAQIKDYYNAYAGYYHPSVKGRFTISRDDSKNSIYLQMNSLKTEDTAVYYCHYVHYAAASQLLPAEGVDAWGQGTTVTVSS VL 2: DIVMTQSPLSLPVTPGEPASISCQPSQEVVHMNRNTYLHWYQQKPGQAPRLLIYKVSNRFPGVPDRFSGSGSGTDFTLKISRVEAEDVGVYYCAQGTSHPFTFGQGTKLEIK | – | – | – | – | – | – | – | binds | binds |
